The term stoichiometry N denotes the number of molecules, sites or subunits per partner or assembly.

Data on two substances can be found in paper PMC8124061.

Assay [1] has as its target F1FO ATP synthase (complex V) of Euglena gracilis mitochondria (Euglena gracilis (endogenous in mitochondria)). In words: native gel or EMSA; two-dimensional BN/BN-PAGE of digitonin-solubilised mitochondria; second BN-PAGE with 0.02% DDM in the cathode buffer, which dissociates the supercomplexes; NADH-dehydrogenase activity stain.
Assay [2] shares this target. Put plainly: native gel or EMSA; BN-PAGE, 3-10% acrylamide gradient, of mitochondria solubilised with DDM 4.0 g/g protein (3.2% w/v), 4 °C, pH 8.4, 100 mM NaCl; Coomassie and in-gel NADH-dehydrogenase and ATPase activity.
For assay [3] the target is unchanged. Described as above. The source holds these as a separate data set.
Assay [4] shares this target. In words: native gel or EMSA; purified dimeric ATP synthase incubated with DDM at room temperature for 10 min; species assigned by size; kind of gel not told in the legend. (A gel shift assay detects complexes by their altered migration in electrophoresis.)
Assay [5] has the same target. Put plainly: native gel or EMSA; BN-PAGE, 3-10% acrylamide gradient with 0.05% digitonin, of mitochondria solubilised with digitonin 8.0 g/g protein (6.4% w/v; up to 12 g/g), 4 °C; Coomassie and in-gel NADH-dehydrogenase and ATPase activity.
The target in assay [6] is dimeric ubiquinol:cytochrome c oxidoreductase (complex III, III2) of Euglena gracilis mitochondria (Euglena gracilis (endogenous in mitochondria)). In words: native gel or EMSA; two-dimensional BN/SDS Tricine-PAGE (12%) of digitonin-extracted complexes; subunits told by their electrophoretic profile.

Values joined by “and” are separate entries in the source; they are usually repeats but may differ in a detail not shown here. Equal entries are not always repeated.

Take “F1FO ATP synthase (complex V) of Euglena gracilis mitochondria”: the stoichiometry N in assay [1] is 4; in assay [2] it was 2; in assay [3], 4; in assay [4], 2; in assay [5] it was 2 and 4.
On to “cytochrome c oxidase (complex IV) of Euglena gracilis mitochondria”, for which the stoichiometry N in assay [6] is 1 and 2.
